Source: US20060068482A1 (Dana-Farber, published 2006)

How the values were obtained:
[1] = molecular target: T1, p75 MLL test substrate, wild type (MLL aa 2,400 to 2,900, N-terminal Myc tag, C-terminal Flag tag), Q03164
T1 chain: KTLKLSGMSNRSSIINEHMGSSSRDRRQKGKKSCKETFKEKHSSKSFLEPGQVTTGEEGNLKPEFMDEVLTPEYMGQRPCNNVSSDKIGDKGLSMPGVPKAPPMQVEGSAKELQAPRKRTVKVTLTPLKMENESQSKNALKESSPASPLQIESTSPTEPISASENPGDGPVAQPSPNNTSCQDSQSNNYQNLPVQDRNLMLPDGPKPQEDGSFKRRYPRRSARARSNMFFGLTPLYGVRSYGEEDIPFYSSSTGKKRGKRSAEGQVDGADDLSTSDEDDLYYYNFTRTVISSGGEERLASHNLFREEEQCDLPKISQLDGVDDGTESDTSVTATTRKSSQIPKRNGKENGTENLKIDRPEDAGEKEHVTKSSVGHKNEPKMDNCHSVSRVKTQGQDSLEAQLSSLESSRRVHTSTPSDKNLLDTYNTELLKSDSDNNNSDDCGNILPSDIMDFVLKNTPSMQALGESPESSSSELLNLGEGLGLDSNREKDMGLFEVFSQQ

[2] = molecular target: T2, p75 MLL substrate with mutant CS1/CS2 sites (MLL aa 2,400 to 2,900 of noncleavable MLL mt, Myc/Flag tagged), Q03164
T2 chain: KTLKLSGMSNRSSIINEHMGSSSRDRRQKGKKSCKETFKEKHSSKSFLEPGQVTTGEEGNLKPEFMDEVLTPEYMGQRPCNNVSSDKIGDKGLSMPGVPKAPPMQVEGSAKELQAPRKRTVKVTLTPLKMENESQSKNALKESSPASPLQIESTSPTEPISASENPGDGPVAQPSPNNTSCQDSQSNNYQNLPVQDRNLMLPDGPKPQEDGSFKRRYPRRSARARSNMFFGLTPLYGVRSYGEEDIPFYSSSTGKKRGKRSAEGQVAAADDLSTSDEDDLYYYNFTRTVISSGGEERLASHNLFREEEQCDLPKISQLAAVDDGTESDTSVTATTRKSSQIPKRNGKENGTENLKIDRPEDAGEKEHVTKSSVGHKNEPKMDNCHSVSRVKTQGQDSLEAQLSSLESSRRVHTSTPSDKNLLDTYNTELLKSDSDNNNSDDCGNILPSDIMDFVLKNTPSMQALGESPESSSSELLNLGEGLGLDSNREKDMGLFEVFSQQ

[3] = molecular target: T3, His-tagged 28 kDa alpha subunit of recombinant Taspase1 (human, UniProt Q9H6P5 1-233); test: co-purification on a TALON column of N-terminal His-tagged Taspase1 from E. coli, Coomassie-stained SDS-PAGE, Edman degradation of the 22 kDa band
T3 construct: also called 28 kDa N-terminal alpha subunit; 29 kDa alpha; not shown: N-terminal His tag from bacterial expression vector ET15b (Novagen)
T3 sequence: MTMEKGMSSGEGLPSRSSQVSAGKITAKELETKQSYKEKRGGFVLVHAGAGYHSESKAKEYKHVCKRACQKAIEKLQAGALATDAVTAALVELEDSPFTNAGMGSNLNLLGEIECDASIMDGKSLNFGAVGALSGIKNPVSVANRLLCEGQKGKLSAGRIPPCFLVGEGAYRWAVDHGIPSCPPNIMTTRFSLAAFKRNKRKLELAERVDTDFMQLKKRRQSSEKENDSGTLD
Excerpt: Purification of recombinant N-terminal His-tagged Taspase1 yielded an expected 50 kDa product, a His-tagged 28 kDa a subunit, and a co-purified 22 kDa polypeptide (FIG. 5A). […] Similarly when an N-terminal and C-terminal epitope tagged human Taspase1 cDNA was expressed in the human 293 T cell line, the 50 kDa product also appeared to be processed to a 28 kDa N-terminal α subunit and a 22 kDa C-terminal β subunit (FIG. 3D). […] However, the D233A mutant retained some residual enzymatic activity, although it was ˜1000 fold less efficient than the wt enzyme (FIG. 5B, middle panel). […] Thus, this MLL cleaving protease is the first endopeptidase within the Asparaginase_{—}2 family with the novel characteristic of being a threonine aspartase, Taspase1.
His-tagged Taspase1 was expressed in BL21(DE3) cells and purified with a TALON column (Clontech). N-terminal protein sequencing was performed by Molecular Biology Core Facility at the Dana-Farber Cancer Institute.

B1: Recombinant His-tagged Taspase1 D233A mutant (E. coli) (protein)
chain: MTMEKGMSSGEGLPSRSSQVSAGKITAKELETKQSYKEKRGGFVLVHAGAGYHSESKAKEYKHVCKRACQKAIEKLQAGALATDAVTAALVELEDSPFTNAGMGSNLNLLGEIECDASIMDGKSLNFGAVGALSGIKNPVSVANRLLCEGQKGKLSAGRIPPCFLVGEGAYRWAVDHGIPSCPPNIMTTRFSLAAFKRNKRKLELAERVDTDFMQLKKRRQSSEKENDSGTLATVGAVVVDHEGNVAAAVSSGGLALKHPGRVGQAALYGCGCWAENTGAHNPYSTAVSTSGCGEHLVRTILARECSHALQAEDAHQALLETMQNKFISSPFLASEDGVLGGVIVLRSCRCSAEPDSSQNKQTLLVEFLWSHTTESMCVGYMSAQDGKAKTHISRLPPGAVAGQSVAIEGGVCRLESPVN
[1]
  in vitro cleavage activity of purified recombinant mutant enzyme: ˜1000 fold less efficient than the wt enzyme

B2: Recombinant His-tagged Taspase1 T234A mutant (E. coli) (protein)
chain: MTMEKGMSSGEGLPSRSSQVSAGKITAKELETKQSYKEKRGGFVLVHAGAGYHSESKAKEYKHVCKRACQKAIEKLQAGALATDAVTAALVELEDSPFTNAGMGSNLNLLGEIECDASIMDGKSLNFGAVGALSGIKNPVSVANRLLCEGQKGKLSAGRIPPCFLVGEGAYRWAVDHGIPSCPPNIMTTRFSLAAFKRNKRKLELAERVDTDFMQLKKRRQSSEKENDSGTLDAVGAVVVDHEGNVAAAVSSGGLALKHPGRVGQAALYGCGCWAENTGAHNPYSTAVSTSGCGEHLVRTILARECSHALQAEDAHQALLETMQNKFISSPFLASEDGVLGGVIVLRSCRCSAEPDSSQNKQTLLVEFLWSHTTESMCVGYMSAQDGKAKTHISRLPPGAVAGQSVAIEGGVCRLESPVN
[1]
  in vitro cleavage activity of purified recombinant mutant enzyme: threonine 234 which became the N-terminus of the β subunit is absolutely essential for cleavage activity

B3: Recombinant N-terminal His-tagged Taspase1 (rTaspase1), wild type, expressed in E. coli (protein)
chain 1: MTMEKGMSSGEGLPSRSSQVSAGKITAKELETKQSYKEKRGGFVLVHAGAGYHSESKAKEYKHVCKRACQKAIEKLQAGALATDAVTAALVELEDSPFTNAGMGSNLNLLGEIECDASIMDGKSLNFGAVGALSGIKNPVSVANRLLCEGQKGKLSAGRIPPCFLVGEGAYRWAVDHGIPSCPPNIMTTRFSLAAFKRNKRKLELAERVDTDFMQLKKRRQSSEKENDSGTLD
chain 2: TVGAVVVDHEGNVAAAVSSGGLALKHPGRVGQAALYGCGCWAENTGAHNPYSTAVSTSGCGEHLVRTILARECSHALQAEDAHQALLETMQNKFISSPFLASEDGVLGGVIVLRSCRCSAEPDSSQNKQTLLVEFLWSHTTESMCVGYMSAQDGKAKTHISRLPPGAVAGQSVAIEGGVCRLESPVN
[2]
  in vitro cleavage of 35S-methionine labeled p75 MLL substrate: but not the CS1/2 mt substrate
[1]
  in vitro cleavage of 35S-methionine labeled p75 MLL substrate: Recombinant Taspase1 (rTaspase1) cleaved the wt p75 MLL
  in vitro cleavage, enzyme titration and time course (appearance of p47 and p42 fragments): The p47 fragment appears first, while higher enzyme concentration or more time is needed for the appearance of the p42 fragment

B4: 22 kDa beta subunit of recombinant Taspase1 (enzyme)
chain: TVGAVVVDHEGNVAAAVSSGGLALKHPGRVGQAALYGCGCWAENTGAHNPYSTAVSTSGCGEHLVRTILARECSHALQAEDAHQALLETMQNKFISSPFLASEDGVLGGVIVLRSCRCSAEPDSSQNKQTLLVEFLWSHTTESMCVGYMSAQDGKAKTHISRLPPGAVAGQSVAIEGGVCRLESPVN
notes: also called co-purified 22 kDa polypeptide; 22 kDa C-terminal beta subunit
[3]
  binding result: binds
